Laboratory results reported in US20100158904A1 (GLENMARK PHARMACEUTICALS S A, published 2010).

B1: TMC-2206, mouse anti-human α2 integrin antibody (BHA2.1 hybridoma) (antibody, V domains shown)
VH: QVQLKESGPGLVAPSQSLSITCTVSGFSLTNYGIHWVRQPPGKGLEWLGVIWARGFTNYNSALMSRLIITKDNSQSQVFLKMNSLQPDDSATYFCARANDGVYYAMDYWGQGTSVTVSS
VL: QFVLTQSPAFLSASPGEKVTMTCSANSSVNYIHWYQQKSGTSPKKWIYDTSKLASGVPVRFSGSGSGTSYSLTISSMETEDAATYYCQQWTTNPLTFGAGTRVELK
notes: Murine monoclonal antibody (Glenmark/Millipore, cat. MAB1998); also called MAB1998
B2: GBR500, humanized anti-human α2 integrin antibody (antibody, human IgG4, kappa, V domains shown)
VH: QVQLQESGPGLVKPSETLSLTCTVSGFSLTNYGIHWIRQPPGKGLEWLGVIWARGFTNYNSALMSRLTISKDNSKNQVSLKLSSVTAADTAVYYCARANDGVYYAMDYWGQGTLVTVSS
VL: DFVMTQSPAFLSVTPGEKVTITCSAQSSVNYIHWYQQKPDQAPKKLIYDTSKLASGVPSRFSGSGSGTDYTFTISSLEAEDAATYYCQQWTTNPLTFGQGTKVEIKR
notes: Its isotype-matched control is a humanized IgG4; also called GBR500-FITC; Biotin-GBR500

How the values were obtained:
[1] = target: human α2β1 integrin (VLA-2) expressed on human cancer cell lines (human) (UniProt P17301); experiment: flow cytometry, 10 µg/mL hIgG4-FITC control on SK-BR-3 cells
[2] = target: human α2β1 integrin (VLA-2) expressed on human cancer cell lines (human) (UniProt P17301); experiment: flow cytometry, 10 µg/mL hIgG4-FITC control on AsPC-1 cells
[3] = target: human α2β1 integrin (VLA-2) expressed on human cancer cell lines (human) (UniProt P17301); experiment: flow cytometry, 10 µg/mL hIgG4-FITC control on HPAF-II cells
[4] = target: human α2β1 integrin (VLA-2) expressed on human cancer cell lines (human) (UniProt P17301); experiment: flow cytometry, hIgG4-FITC control on HT-1080 cells
[5] = target: T1, human α2β1 integrin (VLA-2) expressed on human cancer cell lines (human, UniProt P17301 30-1181; P05556 21-798); experiment: inhibition of adhesion of CFSE-labelled HPAF-II cells to human collagen type I, experiment II
T1 construct: also called α2 integrin; CD49b (α2 subunit)
Method: (§1) Ninety six well ELISA plates (black cliniplate, Thermo Firsher scientific, cat n^o 9502867) were coated with 100 μl of human collagen type I (SIGMA, cat n^o C7774) at 50 μg/mL in Acetic Acid 0.02N or in PBS. Collagen was either diluted in acetic acid and incubated for 1 hour at 37° C. or diluted in PBS and incubated overnight at 4° C. Plates were blocked with 150 μl of PBS supplemented with 0.1% BSA or 1% BSA (Sigma, cat n^o A3059). Cells were first labelled with CFSE (Invitrogen cat n^o C34554) into serum free DMEM medium (PAA, cat n^o E15-005). Three μl of a 15 mM CFSE solution was added to 5 ml cells at a concentration between 1×10⁶ cells/ml to 0.6×10⁶ cells/ml. Cells were incubated with CFSE for 10 minutes at 37° C. and CFSE excess was removed by centrifugation of the cells at 900 rpm for 3 min. CFSE-labelled cells were resuspended at a concentration between 0.6×10⁶ to 1×10⁶ cells/ml in DMEM supplemented with 0.1% BSA. […] Wells in the plates were filled with PBS and fluorescence with excitation at 498 nm and emission at 525 nm was measured using Synerg HT2 fluorometer. Data were analyzed using PRISM software. Activity of the anti-VLA-2 antibody was expressed as EC₅₀ which is defined as the concentration of antibody that provokes a response halfway between the baseline and the maximum response. […]

[6] = target: T1, human α2β1 integrin (VLA-2) expressed …; experiment: inhibition of adhesion of CFSE-labelled HPAF-II cells to human collagen type I, experiment I
Method: as §1

[7] = target: T1, human α2β1 integrin (VLA-2) expressed …; experiment: inhibition of adhesion of CFSE-labelled AsPC-1 cells to human collagen type I, experiment II
Method: as §1

[8] = target: T1, human α2β1 integrin (VLA-2) expressed …; experiment: inhibition of adhesion of HPAF-II cells to human collagen type I, mean of 2 experiments
Method: as §1

[9] = target: T1, human α2β1 integrin (VLA-2) expressed …; experiment: inhibition of adhesion of CFSE-labelled AsPC-1 cells to human collagen type I, experiment I
Method: as §1

[10] = target: T1, human α2β1 integrin (VLA-2) expressed …; experiment: inhibition of adhesion of AsPC-1 cells to human collagen type I, mean of 2 experiments
Method: as §1

[11] = target: T1, human α2β1 integrin (VLA-2) expressed …; experiment: inhibition of adhesion of HT-1080 cells to human collagen type I, mean of 3
Method: as §1

[12] = target: T1, human α2β1 integrin (VLA-2) expressed …; experiment: inhibition of cell adhesion to human collagen type I; ratio between two cell lines
Method: as §1

[13] = target: T1, human α2β1 integrin (VLA-2) expressed …; experiment: inhibition of adhesion of CFSE-labelled SK-BR-3 cells to human collagen type I, experiment II
Method: as §1

[14] = target: T1, human α2β1 integrin (VLA-2) expressed …; experiment: inhibition of adhesion of SK-BR-3 cells to human collagen type I, mean of 2 experiments
Method: as §1

[15] = target: T1, human α2β1 integrin (VLA-2) expressed …; experiment: inhibition of adhesion of CFSE-labelled SK-BR-3 cells to human collagen type I, experiment I
Method: as §1

Chain of human α2β1 integrin (VLA-2) expressed on human cancer cell lines (human) (P17301 30-1181 E534K limits assumed, chain 1 of 2): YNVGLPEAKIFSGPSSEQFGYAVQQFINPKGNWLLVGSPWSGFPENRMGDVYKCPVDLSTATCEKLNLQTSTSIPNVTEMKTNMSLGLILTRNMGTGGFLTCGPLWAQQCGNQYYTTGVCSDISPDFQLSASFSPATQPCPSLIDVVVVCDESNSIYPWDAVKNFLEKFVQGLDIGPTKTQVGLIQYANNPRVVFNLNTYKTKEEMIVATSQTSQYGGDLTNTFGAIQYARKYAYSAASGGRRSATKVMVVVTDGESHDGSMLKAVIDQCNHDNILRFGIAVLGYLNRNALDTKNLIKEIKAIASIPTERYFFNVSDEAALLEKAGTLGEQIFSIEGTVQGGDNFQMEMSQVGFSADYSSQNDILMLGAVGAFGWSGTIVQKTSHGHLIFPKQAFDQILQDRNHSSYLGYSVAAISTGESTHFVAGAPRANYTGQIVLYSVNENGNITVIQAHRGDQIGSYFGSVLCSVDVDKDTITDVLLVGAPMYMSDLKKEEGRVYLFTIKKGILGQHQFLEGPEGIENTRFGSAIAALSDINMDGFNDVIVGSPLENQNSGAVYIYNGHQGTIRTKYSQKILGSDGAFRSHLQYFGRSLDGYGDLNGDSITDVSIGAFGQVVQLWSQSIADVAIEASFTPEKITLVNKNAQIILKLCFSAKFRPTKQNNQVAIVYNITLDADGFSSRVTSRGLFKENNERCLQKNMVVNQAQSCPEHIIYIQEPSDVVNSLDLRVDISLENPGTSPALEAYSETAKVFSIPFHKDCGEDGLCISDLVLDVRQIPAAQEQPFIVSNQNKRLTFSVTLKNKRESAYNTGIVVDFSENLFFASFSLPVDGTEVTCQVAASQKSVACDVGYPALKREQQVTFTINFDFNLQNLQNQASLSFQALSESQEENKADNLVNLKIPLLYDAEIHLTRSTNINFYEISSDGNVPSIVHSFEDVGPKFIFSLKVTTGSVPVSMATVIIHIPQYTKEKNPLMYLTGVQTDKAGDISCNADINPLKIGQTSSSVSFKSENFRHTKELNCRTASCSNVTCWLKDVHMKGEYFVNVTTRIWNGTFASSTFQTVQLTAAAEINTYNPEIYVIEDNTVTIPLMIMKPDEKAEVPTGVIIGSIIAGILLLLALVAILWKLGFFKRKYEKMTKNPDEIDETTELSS
Chain of human α2β1 integrin (VLA-2) expressed on human cancer cell lines (human) (chain, as listed by the source limits assumed, chain 2 of 2): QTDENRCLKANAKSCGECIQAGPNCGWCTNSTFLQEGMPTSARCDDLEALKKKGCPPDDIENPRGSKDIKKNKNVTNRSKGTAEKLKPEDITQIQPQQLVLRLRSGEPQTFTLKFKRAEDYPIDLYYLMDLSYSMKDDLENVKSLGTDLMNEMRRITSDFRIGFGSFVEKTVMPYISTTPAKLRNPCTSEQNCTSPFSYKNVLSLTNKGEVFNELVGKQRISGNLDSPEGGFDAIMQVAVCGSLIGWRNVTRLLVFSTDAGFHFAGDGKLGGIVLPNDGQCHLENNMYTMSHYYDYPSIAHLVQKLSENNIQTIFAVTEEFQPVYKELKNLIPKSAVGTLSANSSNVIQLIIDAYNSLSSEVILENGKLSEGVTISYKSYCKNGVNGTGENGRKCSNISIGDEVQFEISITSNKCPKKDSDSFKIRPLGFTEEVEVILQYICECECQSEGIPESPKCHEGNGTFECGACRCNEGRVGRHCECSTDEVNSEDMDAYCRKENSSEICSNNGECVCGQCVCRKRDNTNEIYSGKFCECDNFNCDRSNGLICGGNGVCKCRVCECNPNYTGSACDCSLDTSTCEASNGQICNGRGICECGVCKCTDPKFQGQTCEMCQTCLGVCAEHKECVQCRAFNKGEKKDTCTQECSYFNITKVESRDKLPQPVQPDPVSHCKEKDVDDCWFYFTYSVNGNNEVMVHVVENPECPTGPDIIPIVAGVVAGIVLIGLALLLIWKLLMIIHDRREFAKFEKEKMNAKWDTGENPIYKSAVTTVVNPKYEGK
T1 sequence (P17301 30-1181 E534K limits assumed, chain 1 of 2): as the sequence (P17301 30-1181 E534K limits assumed, chain 1 of 2) above
T1 sequence (P05556 21-798 limits assumed, chain 2 of 2): as the sequence (chain, as listed by the source limits assumed, chain 2 of 2) above

Molecule	MFI [1]	MFI [2]	MFI [3]	MFI [4]	EC50 [5] [µg/mL]	EC50 [6] [µg/mL]	EC50 [7] [µg/mL]	EC50 [8] [µg/mL]	EC50 [9] [µg/mL]	EC50 [10] [µg/mL]	EC50 [11] [µg/mL]	fold EC50 on HPAF-II cells against EC50 on AsPC-1 cells [12] [fold]	EC50 [13] [µg/mL]	EC50 [14] [µg/mL]	EC50 [15] [µg/mL]
hIgG4 isotype control antibody	3.4	6.8	14.9	4.9	–	–	–	–	–	–	–	–	–	–	–
B1	–	–	–	–	0.253	0.326	0.087	0.29	0.074	0.08	0.097	3.6	–	–	–
B2	–	–	–	–	0.103	0.224	0.036	0.163	0.047	0.041	0.076	3.9	0.032	0.036	0.039
